Results: patent publication EP4497755A1 (Asociación Centro de Investigación Cooperativa en …, dated 2025)

Tests used:
[1] = molecular target: VSV-G-tagged full-length LRP6 (UniProt O75581); assay: immunofluorescence colocalization in transfected cells
[2] = molecular target: T1, WNT3/3A peptide DSLAIFGPVLDKATRESAC; assay: peptide ELISA
T1 peptide: DSLAIFGPVLDKATRESAC

[3] = molecular target: T2, WNT7A peptide GKELKVGSREAAC; assay: peptide ELISA
T2 peptide: GKELKVGSREAAC

[4] = molecular target: T3, WNT7B peptide GQELRVGSREAAC; assay: peptide ELISA
T3 peptide: GQELRVGSREAAC

[5] = molecular target: T4, WNT9A peptide RASLLKRGFKETAC; assay: peptide ELISA
T4 peptide: RASLLKRGFKETAC

[6] = molecular target: T5, WNT10A peptide YESPIFSRGFRESAC; assay: peptide ELISA
T5 peptide: YESPIFSRGFRESAC

[7] = molecular target: T6, Wnt-11 peptide LLDLERGTRESA (human); assay: peptide dot blot
T6 construct: also called Wnt-11 amino acids L101-A112
T6 peptide: LLDLERGTRESA

[8] = molecular target: T7, Wnt-11 alanine replacement peptide P01 ALDLERGTRESA (human); assay: peptide ELISA, alanine replacement panel
T7 peptide: ALDLERGTRESA

[9] = molecular target: T8, Wnt-11 alanine replacement peptide P02 LADLERGTRESA (human); assay: peptide ELISA, alanine replacement panel
T8 peptide: LADLERGTRESA

[10] = molecular target: T9, Wnt-11 alanine replacement peptide P03 LLALERGTRESA (human); assay: peptide ELISA, alanine replacement panel
T9 peptide: LLALERGTRESA

[11] = molecular target: T10, Wnt-11 alanine replacement peptide P04 LLDAERGTRESA (human); assay: peptide ELISA, alanine replacement panel
T10 peptide: LLDAERGTRESA

[12] = molecular target: T11, Wnt-11 alanine replacement peptide P05 LLDLARGTRESA (human); assay: peptide ELISA, alanine replacement panel
T11 peptide: LLDLARGTRESA

[13] = molecular target: T12, Wnt-11 alanine replacement peptide P06 LLDLEAGTRESA (human); assay: peptide ELISA, alanine replacement panel
T12 peptide: LLDLEAGTRESA

[14] = molecular target: T13, Wnt-11 alanine replacement peptide P07 LLDLERATRESA (human); assay: peptide ELISA, alanine replacement panel
T13 peptide: LLDLERATRESA

[15] = molecular target: T14, Wnt-11 alanine replacement peptide P08 LLDLERGARESA (human); assay: peptide ELISA, alanine replacement panel
T14 peptide: LLDLERGARESA

[16] = molecular target: T15, Wnt-11 alanine replacement peptide P09 LLDLERGTAESA (human); assay: peptide ELISA, alanine replacement panel
T15 peptide: LLDLERGTAESA

[17] = molecular target: T16, Wnt-11 alanine replacement peptide P10 LLDLERGTRASA (human); assay: peptide ELISA, alanine replacement panel
T16 peptide: LLDLERGTRASA

[18] = molecular target: T17, Wnt-11 alanine replacement peptide P11 LLDLERGTREAA (human); assay: peptide ELISA, alanine replacement panel
T17 peptide: LLDLERGTREAA

[19] = molecular target: T18, Wnt-11 peptide LLDLERGTRESAC (human); assay: peptide dot blot and peptide ELISA (Fig. 6a, b)
T18 construct: The C-terminal cysteine is not part of Wnt-11; also called wt101
T18 peptide: LLDLERGTRESAC

[20] = molecular target: T19, human Wnt-11 (wild-type, untagged) (human, UniProt O96014 25-354); assay: immunofluorescence of non-permeabilized VCaP (Wnt-11 high) and C4-2B (Wnt-11 low) cells
T19 construct: whole, on cells; also called wild-type Wnt-11
T19 sequence (looked up): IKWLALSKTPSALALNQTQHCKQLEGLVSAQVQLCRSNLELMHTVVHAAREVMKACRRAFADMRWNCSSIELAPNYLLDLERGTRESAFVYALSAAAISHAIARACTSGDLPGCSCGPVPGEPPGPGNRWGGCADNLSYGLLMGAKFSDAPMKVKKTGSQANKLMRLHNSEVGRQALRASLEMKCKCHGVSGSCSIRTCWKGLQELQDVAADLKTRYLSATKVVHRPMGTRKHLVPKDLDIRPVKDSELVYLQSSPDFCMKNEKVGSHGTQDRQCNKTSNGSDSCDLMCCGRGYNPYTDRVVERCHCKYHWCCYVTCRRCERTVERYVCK

[21] = molecular target: T20, Wnt-11 antibody epitope deletion mutant Wnt-11m (Wnt-11 delta 101-108, untagged) (human, UniProt O96014 25-354); assay: Ab1 staining and FACS sorting of transfected HEK 293 cells, western blot of Ab1high and Ab1low populations
T20 construct: whole, on cells; also called AE
T20 sequence (looked up): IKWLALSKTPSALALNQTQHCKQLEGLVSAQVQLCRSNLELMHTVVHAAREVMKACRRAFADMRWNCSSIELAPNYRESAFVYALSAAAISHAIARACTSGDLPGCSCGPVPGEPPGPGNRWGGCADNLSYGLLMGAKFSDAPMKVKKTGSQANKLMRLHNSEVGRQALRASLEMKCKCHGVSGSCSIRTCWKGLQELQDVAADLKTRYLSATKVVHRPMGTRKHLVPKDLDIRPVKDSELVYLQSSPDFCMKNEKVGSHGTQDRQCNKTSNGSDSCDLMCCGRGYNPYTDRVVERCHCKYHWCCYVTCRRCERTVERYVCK

[22] = molecular target: T18, Wnt-11 peptide LLDLERGTRESAC; assay: peptide dot blot (Fig. 6a)
[23] = molecular target: T6, Wnt-11 peptide LLDLERGTRESA; assay: peptide ELISA

Chain of VSV-G-tagged full-length LRP6 (O75581 other isoform, or with tags, fused parts or gaps limits assumed): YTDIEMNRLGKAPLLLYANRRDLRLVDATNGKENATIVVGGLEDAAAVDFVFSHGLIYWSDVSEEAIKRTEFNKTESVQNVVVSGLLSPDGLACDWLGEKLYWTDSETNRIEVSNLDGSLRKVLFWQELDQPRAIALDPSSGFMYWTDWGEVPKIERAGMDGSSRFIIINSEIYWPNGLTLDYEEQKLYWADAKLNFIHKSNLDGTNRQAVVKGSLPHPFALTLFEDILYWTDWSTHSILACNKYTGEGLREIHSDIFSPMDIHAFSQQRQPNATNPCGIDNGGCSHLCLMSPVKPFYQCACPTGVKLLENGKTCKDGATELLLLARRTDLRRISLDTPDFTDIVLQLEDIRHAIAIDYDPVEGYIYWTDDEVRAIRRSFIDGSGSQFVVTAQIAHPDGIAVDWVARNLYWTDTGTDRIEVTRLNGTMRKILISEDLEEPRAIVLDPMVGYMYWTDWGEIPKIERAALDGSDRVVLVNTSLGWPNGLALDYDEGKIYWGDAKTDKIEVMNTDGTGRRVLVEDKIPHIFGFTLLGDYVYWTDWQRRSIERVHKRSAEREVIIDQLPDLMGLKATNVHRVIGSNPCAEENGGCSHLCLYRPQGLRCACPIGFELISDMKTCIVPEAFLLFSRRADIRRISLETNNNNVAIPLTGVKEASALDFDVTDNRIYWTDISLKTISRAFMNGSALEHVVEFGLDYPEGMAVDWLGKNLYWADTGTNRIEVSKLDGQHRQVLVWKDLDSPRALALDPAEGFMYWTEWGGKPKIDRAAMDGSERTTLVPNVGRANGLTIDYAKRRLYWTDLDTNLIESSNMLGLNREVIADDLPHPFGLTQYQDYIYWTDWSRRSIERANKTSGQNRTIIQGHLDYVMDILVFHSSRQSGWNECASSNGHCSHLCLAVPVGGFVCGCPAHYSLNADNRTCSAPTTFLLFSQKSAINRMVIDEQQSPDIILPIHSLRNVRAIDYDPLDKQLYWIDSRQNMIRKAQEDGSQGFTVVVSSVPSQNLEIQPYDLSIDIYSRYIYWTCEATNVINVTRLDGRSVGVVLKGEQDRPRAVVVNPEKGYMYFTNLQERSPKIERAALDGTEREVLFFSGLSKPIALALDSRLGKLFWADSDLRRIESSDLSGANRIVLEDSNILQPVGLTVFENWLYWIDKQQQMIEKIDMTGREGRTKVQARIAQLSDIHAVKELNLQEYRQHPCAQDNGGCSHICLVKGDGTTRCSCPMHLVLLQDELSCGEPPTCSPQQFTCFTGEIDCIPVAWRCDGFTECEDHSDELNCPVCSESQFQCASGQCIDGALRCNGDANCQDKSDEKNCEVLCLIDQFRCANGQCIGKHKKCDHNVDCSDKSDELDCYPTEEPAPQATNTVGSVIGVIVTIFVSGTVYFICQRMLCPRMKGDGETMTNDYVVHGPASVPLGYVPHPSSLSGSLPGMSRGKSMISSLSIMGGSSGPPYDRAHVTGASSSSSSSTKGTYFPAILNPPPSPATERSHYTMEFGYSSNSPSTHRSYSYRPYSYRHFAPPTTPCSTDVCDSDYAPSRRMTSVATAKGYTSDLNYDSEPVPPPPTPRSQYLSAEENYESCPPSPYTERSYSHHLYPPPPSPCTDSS

B1: Wnt-11 antibody epitope deletion mutant Wnt-11m (Wnt-11 delta 101-108, untagged) (ligand, human, UniProt O96014 25-354, looked up)
chain: T20 sequence (looked up)
For B1, the colocalization with LRP6, Pearson [1] was 0.4 and the colocalization with LRP6, Spearman [1] was 0.46.

B2: human Wnt-11 (wild-type, untagged) (ligand, UniProt O96014 25-354, looked up)
chain: T19 sequence (looked up)
B2 showed a colocalization with LRP6, Pearson [1] of 0.6 and a colocalization with LRP6, Spearman [1] of 0.67.

B3: anti-Wnt-11 rat monoclonal antibody Ab1 (E8) (antibody, rat IgG2a, V domains shown)
VH: EVELVESGGGLVQPGRSLKLSCAASGFTFSDYGMAWVRQTPTKGLEWVASITSGGGNPYYRDSVKGRFTISRDNAKNTQHLQMDSLRSEDTATYYCARHEYYGNYMTCFDYWGQGVMVTVSS
VL: AIVLNQSPSSIVASQGEKVTITCRASLSISSNYLHWYQQKPGAFPKLVIYSTSYRASGVPSRFSGSGSGTSYSFTISRVEAEDVATYYCQQGSSDPLTFGSGTKLEIK
notes: also called anti-Wnt-11-Ab1; Wnt-11 antibody E8
B3: no binding [2]; no binding [3]; no binding [4]. B3: no binding [5]; no binding [6]; binds [7]. B3: no binding [8]; no binding [9]; no binding [10]. B3: no binding [11]; no binding [12]; no binding [13]. B3: binds [14]; binds [15]; binds [16]. B3: binds [17]; binds [18]; binds [19]. B3: binds [20]; no binding (tested: Ab1 at 30 µg/ml) [21].

B4: anti-Wnt-11 rat monoclonal antibody Ab2 (F10) (antibody, rat IgG2c, V domains shown)
VH: EVQLVESGGGLVQPGRSLKLSCAASGFTFSNYGMAWVRQAPTKGLEWVASINYDGRNTYYRDSVKGRFTISRDNAKSTVYLQMDSLRSEDTATYYCARPQDGVIDAWGQGDSVTVSS
VL: DVVMTQTPVSLPVSLGGQASISCRSSQSLVHSNGNTYLHWYLQKPGQFPQLLIYRVSNRFSGVPDRFSGSGSGTDFTLKISRVESEDLGVYYCLQGTHLPPTFGGGTKLELK
notes: also called anti-Wnt-11-F10; Wnt-11 antibody F10
B4: binds [7]; binds [22].

B5: chimeric anti-Wnt-11 antibody E8h4hk (E8 IgG4k chimeric antibody) (antibody, V domains shown)
VH: B3 VH
VL: B3 VL
notes: also called chimeric E8 (hIgG4kappa)
B5: binds [23].
